From WO2013151666A2

Molecular target: Low density lipoprotein receptor (LDLR) expressed on HEK293 cells transfected with LDLR modified mRNA (mRNA SEQ ID NO: 21463) (human) (UniProt P01130)
Assay: FACS; rising amounts of BODIPY-LDL on HEK293 cells transfected with LDLR mRNA, 1 h at 37 C

Low density lipoprotein receptor (LDLR) expressed on HEK293 cells transfected with LDLR modified mRNA (mRNA SEQ ID NO: 21463) (human), sequence (P01130 22-860): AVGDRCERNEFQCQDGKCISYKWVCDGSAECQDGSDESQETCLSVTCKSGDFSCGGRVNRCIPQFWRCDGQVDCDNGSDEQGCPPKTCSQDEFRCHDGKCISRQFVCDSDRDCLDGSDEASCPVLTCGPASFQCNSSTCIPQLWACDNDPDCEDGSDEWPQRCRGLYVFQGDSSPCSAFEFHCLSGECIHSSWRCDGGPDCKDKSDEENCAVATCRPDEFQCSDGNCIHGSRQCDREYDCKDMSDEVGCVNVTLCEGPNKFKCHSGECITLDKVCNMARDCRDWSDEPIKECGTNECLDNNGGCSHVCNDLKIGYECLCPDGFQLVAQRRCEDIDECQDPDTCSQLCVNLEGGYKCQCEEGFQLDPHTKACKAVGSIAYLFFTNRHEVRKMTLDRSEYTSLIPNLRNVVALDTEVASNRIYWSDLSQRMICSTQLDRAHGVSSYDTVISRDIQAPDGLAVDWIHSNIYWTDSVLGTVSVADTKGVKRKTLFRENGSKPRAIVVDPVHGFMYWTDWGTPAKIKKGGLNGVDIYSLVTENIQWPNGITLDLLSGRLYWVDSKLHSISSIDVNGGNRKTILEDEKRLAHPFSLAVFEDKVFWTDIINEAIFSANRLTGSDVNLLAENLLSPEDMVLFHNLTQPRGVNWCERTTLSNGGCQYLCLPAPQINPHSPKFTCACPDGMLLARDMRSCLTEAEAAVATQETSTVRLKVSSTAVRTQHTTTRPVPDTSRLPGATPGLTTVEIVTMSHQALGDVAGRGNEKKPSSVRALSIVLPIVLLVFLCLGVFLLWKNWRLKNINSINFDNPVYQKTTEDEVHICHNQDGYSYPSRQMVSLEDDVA

**Q.** Which Kd does the source give for “BODIPY-labeled LDL (low density lipoprotein) (from UniProt P04114 28-4563) (ligand)” here?
**A.** The Kd was 0.06 µg/mL.
